Results reported in patent US20240191241, “APTAMERS FOR USE IN THE […] OF CORONAVIRIDAE INFECTIONS” (Berlin Cures GmbH, published 2024).

T1: SARS-CoV-2 spike receptor-binding domain peptide No. 4 (YRLFRK) (SARS-CoV-2)
T1 chain: YRLFRK

T2: SARS-CoV-2 RNA-dependent RNA polymerase peptide HRFYRLAN (SARS-CoV-2)
T2 chain: HRFYRLAN

T3: SARS-CoV-2 RNA-dependent RNA polymerase peptide LYRNRDV (SARS-CoV-2)
T3 chain: LYRNRDV

T4: SARS-CoV-2 spike receptor-binding domain control peptide NRKRISN (SARS-CoV-2)
T4 chain: NRKRISN


Columns and labels:
Thrombin = Thrombin (Homo sapiens, UniProt P00734;P00734 P00734:328-363,P00734:364-622); test: ELONA
[1] = target: T1, SARS-CoV-2 spike receptor-binding …; test: NMR; quadruplex imino signals induced by peptide; 1 mM each, 90/10 H2O/D2O, 298 K, no additives; conditions: tags: isolated peptide; G4
[2] = target: T2, SARS-CoV-2 RNA-dependent RNA polymerase …; test: ITC; 1:1 stoichiometry; 50 mM sodium phosphate, 150 mM NaCl, pH 7.06, 25 C; quadruplex induction also by NMR; Kd not given; conditions: tags: isolated peptide; G4
[3] = target: T3, SARS-CoV-2 RNA-dependent RNA polymerase …; test: NMR; quadruplex fold induced by peptide; 90/10 H2O/D2O, 298 K; conditions: tags: isolated peptide; G4
[4] = target: T4, SARS-CoV-2 spike receptor-binding …; test: NMR: nearly complete absence of quadruplex formation; also used as control in ITC (50 mM sodium phosphate, 150 mM NaCl, pH 7.16, 25 C); conditions: tags: isolated peptide; G4

| Binder | binding result (Thrombin) | binding result [1] | binding result [2] | binding result [3] | binding result [4] |
| --- | --- | --- | --- | --- | --- |
| GGTTGGTGTGGTTGG (ssDNA) [BC007 5'-biotinylated] | binds | – | – | – | – |
| GGTTGGTGTGGTTGG (ssDNA) [BC007] | – | binds | binds | binds | no binding |
